B1: HvHPPD-02: native Hordeum vulgare HPPD, SEQ ID NO: 51 (protein)
chain: MPPTPTTPAATGAAAAVTPEHARPHRMVRFNPRSDRFHTLSFHHVEFWCADAASAAGRFAFALGAPLAARSDLSTGNSAHASQLLRSGSLAFLFTAPYANGCDAATASLPSFSADAARRFSADHGIAVRSVALRVADAAEAFRASRRRGARPAFAPVDLGRGFAFAEVELYGDVVLRFVSHPDGTDVPFLPGFEGVTNPDAVDYGLTRFDHVVGNVPELAPAAAYIAGFTGFHEFAEFTAEDVGTTESGLNSVVLANNSEGVLLPLNEPVHGTKRRSQIQTFLEHHGGPGVQHIAVASSDVLRTLRKMRARSAMGGFDFLPPPLPKYYEGVRRLAGDVLSEAQIKECQELGVLVDRDDQGVLLQIFTKPVGDRPTLFLEMIQRIGCMEKDERGEEYQKGGCGGFGKGNFSELFKSIEDYEKSLEAKQSAAVQGS
modifications: Hordeum vulgare; HvHPPD Amino Acid Sequence
B2: HvHPPDm-F372A-02: Hordeum vulgare HPPD mutant F372A, SEQ ID NO: 54 (protein)
chain: MPPTPTTPAATGAAAAVTPEHARPHRMVRFNPRSDRFHTLSFHHVEFWCADAASAAGRFAFALGAPLAARSDLSTGNSAHASQLLRSGSLAFLFTAPYANGCDAATASLPSFSADAARRFSADHGIAVRSVALRVADAAEAFRASRRRGARPAFAPVDLGRGFAFAEVELYGDVVLRFVSHPDGTDVPFLPGFEGVTNPDAVDYGLTRFDHVVGNVPELAPAAAYIAGFTGFHEFAEFTAEDVGTTESGLNSVVLANNSEGVLLPLNEPVHGTKRRSQIQTFLEHHGGPGVQHIAVASSDVLRTLRKMRARSAMGGFDFLPPPLPKYYEGVRRLAGDVLSEAQIKECQELGVLVDRDDQGVLLQIATKPVGDRPTLFLEMIQRIGCMEKDERGEEYQKGGCGGFGKGNFSELFKSIEDYEKSLEAKQSAAVQGS
modifications: HvHPPDm-F372A Amino Acid Sequence
B3: SiHPPD-02: native Setaria italica HPPD, SEQ ID NO: 57 (protein, listed as Setaria italica)
chain: MPPTPTPAAAAPGAAAAPAAGDQAAFRLVGHRGFVRVNPRSDRFHTLSFHHVELWCADATSAAGRFSFGLGAPLAARSDLSTGNSAHASLLLRSGSLAFLFTAPYAHGVDAATASLPSFSAPAARSFAADHGLAVRAIGLRVADAEDAFRASVAAGARPAFKPVELGLGFRLAEVELYGDVVLRYVSYPDAEDAPFLPGFENVNNPGALNYGLRRFDHIVGNVPELAPVAAYVAGFTGFHEFAEFTAEDVGTAESGLNSMVLANNSETVLIPLNEPVHGTKRRSQIQTFLDHNGGPGVQHIALASDDVLRTLREMQARSAMGGFEFMAAPPPDYYEGVRRRAGDVLSEAQIKECQELGVLVDRDDQGVLLQIFTKPVGDRQTLFLEIIQRIGCMEKDEQGQEYQKGGCGGFGKGNFSQLFKSIEDYEKSLESKQAAAVQGS
modifications: SiHPPD Amino Acid Sequence
B4: SiHPPDm-F372A-02: Setaria italica HPPD mutant F372A, SEQ ID NO: 60 (protein)
chain: MPPTPTPAAAAPGAAAAPAAGDQAAFRLVGHRGFVRVNPRSDRFHTLSFHHVELWCADATSAAGRFSFGLGAPLAARSDLSTGNSAHASLLLRSGSLAFLFTAPYAHGVDAATASLPSFSAPAARSFAADHGLAVRAIGLRVADAEDAFRASVAAGARPAFKPVELGLGFRLAEVELYGDVVLRYVSYPDAEDAPFLPGFENVNNPGALNYGLRRFDHIVGNVPELAPVAAYVAGFTGFHEFAEFTAEDVGTAESGLNSMVLANNSETVLIPLNEPVHGTKRRSQIQTFLDHNGGPGVQHIALASDDVLRTLREMQARSAMGGFEFMAAPPPDYYEGVRRRAGDVLSEAQIKECQELGVLVDRDDQGVLLQIATKPVGDRQTLFLEIIQRIGCMEKDEQGQEYQKGGCGGFGKGNFSQLFKSIEDYEKSLESKQAAAVQGS
modifications: SiHPPDm-F372A Amino Acid Sequence
B5: SbHPPD-02: native Sorghum bicolor HPPD, SEQ ID NO: 63 (protein)
chain: MPPTPTTAAATGAAVAAASAEQAAFRLVGHRNFVRVNPRSDRFHTLAFHHVELWCADAASAAGRFSFGLGAPLAARSDLSTGNTAHASLLLRSGALAFLFTAPYAHGADAATASLPSFSAAEARRFAADHGLAVRAVALRVADAEDAFRASVAAGARPAFEPVELGLGFRLAEVELYGDVVLRYVSYPDDADASFLPGFVGVTSPGAADYGLRRFDHIVGNVPELAPAAAYFAGFTGFHEFAEFTAEDVGTTESGLNSMVLANNAENVLLPLNEPVHGTKRRSQIQTYLDHHGGPGVQHMALASDDVLRTLREMQARSAMGGFEFMAPPAPEYYDGVRRRAGDVLTEAQIKECQELGVLVDRDDQGVLLQIFTKPVGDRPTLFLEIIQRIGCMEKDEKGQEYQKGGCGGFGKGNFSQLFKSIEDYEKSLEAKQAAAAQGS
modifications: Sorghum bicolor; SbHPPD Amino Acid Sequence
B6: SbHPPDm-F372A-02: Sorghum bicolor HPPD mutant F372A, SEQ ID NO: 66 (protein)
chain: MPPTPTTAAATGAAVAAASAEQAAFRLVGHRNFVRVNPRSDRFHTLAFHHVELWCADAASAAGRFSFGLGAPLAARSDLSTGNTAHASLLLRSGALAFLFTAPYAHGADAATASLPSFSAAEARRFAADHGLAVRAVALRVADAEDAFRASVAAGARPAFEPVELGLGFRLAEVELYGDVVLRYVSYPDDADASFLPGFVGVTSPGAADYGLRRFDHIVGNVPELAPAAAYFAGFTGFHEFAEFTAEDVGTTESGLNSMVLANNAENVLLPLNEPVHGTKRRSQIQTYLDHHGGPGVQHMALASDDVLRTLREMQARSAMGGFEFMAPPAPEYYDGVRRRAGDVLTEAQIKECQELGVLVDRDDQGVLLQIATKPVGDRPTLFLEIIQRIGCMEKDEKGQEYQKGGCGGFGKGNFSQLFKSIEDYEKSLEAKQAAAAQGS
modifications: SbHPPDm-F372A Amino Acid Sequence

Test system: Arabidopsis thaliana T1 plants
Experiment: Topramezone tolerance of transgenic Arabidopsis thaliana T1 plants (pesticide damage grade by bleached leaf area, score, resistance evaluation)
Type: in vivo
Conditions: HPPDs from different species, 7 DAT; for Classification and statistics of pesticide damage grade Grade 0 / Classification and statistics of pesticide damage grade Grade 1 / Classification and statistics of pesticide damage grade Grade 2 / Classification and statistics of pesticide damage grade Grade 3: number of plants (of 16) in this grade; for Scores: score for pesticide damage 0-100
Summary of the method: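 Herbicide tolerance was judged per plant on a bleaching scale (grade 0 no bleaching to grade 3 fully bleached) 7 DAT. Topramezone doses were 0, 25, 50 and 100 g ai/ha on 18-day-old T1 and wild-type plants.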

Row | Molecule | Classification and statistics of pesticide damage grade Grade 0 (topramezone 25 g ai/ha (1x)) | Classification and statistics of pesticide damage grade Grade 1 (topramezone 25 g ai/ha (1x)) | Classification and statistics of pesticide damage grade Grade 2 (topramezone 25 g ai/ha (1x)) | Classification and statistics of pesticide damage grade Grade 3 (topramezone 25 g ai/ha (1x)) | Classification and statistics of pesticide damage grade Grade 0 (topramezone 100 g ai/ha (4x)) | Classification and statistics of pesticide damage grade Grade 1 (topramezone 100 g ai/ha (4x)) | Classification and statistics of pesticide damage grade Grade 2 (topramezone 100 g ai/ha (4x)) | Classification and statistics of pesticide damage grade Grade 3 (topramezone 100 g ai/ha (4x)) | Scores (topramezone 25 g ai/ha (1x)) | Scores (topramezone 100 g ai/ha (4x)) | Resistance evaluation (topramezone 25 g ai/ha (1x)) | Resistance evaluation (topramezone 100 g ai/ha (4x))
1 | B1 | 0 | 0 | 0 | 16 | 0 | 0 | 0 | 16 | 100 | 100 | non-resistant (non-resistant plants (scores 68-100)) | non-resistant (non-resistant plants (scores 68-100))
2 | B2 | 15 | 1 | 0 | 0 | 8 | 8 | 0 | 0 | 2 | 17 | highly resistant (highly resistant plants (scores 0-15)) | moderately resistant (moderately resistant plants (scores 16-33))
3 | B3 | 0 | 0 | 0 | 16 | 0 | 0 | 0 | 16 | 100 | 100 | non-resistant (non-resistant plants (scores 68-100)) | non-resistant (non-resistant plants (scores 68-100))
4 | B4 | 13 | 2 | 1 | 0 | 6 | 8 | 2 | 0 | 8 | 25 | highly resistant (highly resistant plants (scores 0-15)) | moderately resistant (moderately resistant plants (scores 16-33))
5 | B5 | 0 | 0 | 0 | 16 | 0 | 0 | 0 | 16 | 100 | 100 | non-resistant (non-resistant plants (scores 68-100)) | non-resistant (non-resistant plants (scores 68-100))
6 | B6 | 16 | 0 | 0 | 0 | 4 | 4 | 8 | 0 | 0 | 42 | highly resistant_ (highly resistant plants (scores 0-15)) | poorly resistant (poorly resistant plants (scores 34-67))

Reference: patent publication US20230212587A1, “Mutant Hydroxyphenylpyruvate Dioxygenase Polypeptide, Encoding Gene Thereof and Use Therefor” (Beijing Dabeinong Biotechnology Co., Ltd., priority 2019, published 2023)
